Measurements taken from the supplement of paper PMC12338614.
± gives the uncertainty stated by the source.

B1: library; numbered along this chain (parent)
chain: MEVVDPQQLGMFTEGELMSVGMDTFIHRIDSTEVIYQPRRKRAKLIGKYLMGDLLGEGSYGKVKEVLDSETLCRRAVKILKKKKLRRIPNGEANVKKEIQLLRRLRHKNVIQLVDVLYNEEKQKMYMVMEYCVCGMQEMLDSVPEKRFPVCQAHGYFCQLIDGLEYLHSQGIVHKDIKPGNLLLTTGGTLKISDLGVAEALHPFAADDTCRTSQGSPAFQPPEIANGLDTFSGFKVDIWSAGVTLYNITTGLYPFEGDNIYKLFENIGKGSYAIPGDCGPPLSDLLKGMLEYEPAKRFSIRQIRQHSWFRKKHPPAEAPVPIPPSPDTKDRWRSMTVVPYLEDLHGADEDEDLFDIEDDIIYTQDFTVPGQVPEEEASHNGQRRGLPKAVCMNGTEAAQLSTKSRAEGRAPNPARKACSASSKIRRLSACKQQ

Variants of: B1
Test: STK11 functional score (HeLa growth suppression), rescaled enrichment; synonymous median = 1, nonsense median = 0 (normalised score)
Conditions: with HeLa; variant type: missense
Summary of the method: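 The values are functional scores: wild-type-corrected log ratios of post- versus pre-selection abundance, rescaled to synonymous and nonsense medians, merged over codons and replicate transfections, and carrying bootstrapped error. They derive from codon-randomised (POPCode), codon-optimised STK11 libraries that Bxb1 integrated at an AAVS1 landing pad in HeLa, with three transfections for each of three regions. Sequencing of tiled gDNA amplicons ran on NextSeq, at ~2 million reads per tile.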

| Variant | STK11 functional score |
| --- | --- |
| Q112S | 1.1 ± 0.35 |
| N380V | 1.12 ± 0.27 |
| P217Y | 1.45 ± 0.31 |
| P373C | 1.32 ± 0.48 |
| C418H | 1.17 ± 0.18 |
| G188D | 1.43 ± 0.16 |
| G171C | 0.479 ± 0.091 |
| T186H | 0.54 ± 0.59 |
| P321F | 0.903 ± 0.49 |
| M51G | 1.1 ± 0.091 |
| R74P | 1.27 ± 0.19 |
| I46T | 1.24 ± 0.27 |
| N94T | 1.27 ± 0.18 |
| N94Y | 0.568 ± 0.34 |
| T363V | 1.2 ± 0.16 |
| Q214W | 0.779 ± 0.19 |
| T230H | 1.46 ± 0.38 |
| T230E | 1.65 ± 0.17 |
| E265L | 1.18 ± 0.42 |
| L117Y | 1.55 ± 0.19 |
| P281G | 0.787 ± 0.18 |
| A389V | 0.744 ± 0.54 |
| A389H | 1.51 ± 0.12 |
| D68L | 0.441 ± 0.14 |

| Variant | STK11 functional score |
| --- | --- |
| K41Q | 0.893 ± 0.4 |
| S193W | 0.0192 ± 0.15 |
| E351R | 1.26 ± 0.16 |
| L190P | 0.0599 ± 0.15 |
| L184A | 0.745 ± 0.32 |
| R384T | 1.15 ± 0.46 |
| S404M | 1.58 ± 0.28 |
| S404C | 1.14 ± 0.56 |
| E199F | 1.37 ± 0.25 |
| R86V | 1.4 ± 0.26 |
| K423D | 1.14 ± 0.6 |
| K423Q | 0.701 ± 0.61 |
| P6Y | 1.67 ± 0.12 |
| V243E | 0.204 ± 0.47 |
| V243I | 1.42 ± 0.14 |
| Q432L | 1.55 ± 0.15 |
| A318I | 1.49 ± 0.16 |
| E407K | 1.55 ± 0.37 |
| E407Q | 0.809 ± 0.34 |
| M139P | 0.179 ± 0.18 |
| N259E | 1.47 ± 0.34 |
| K312V | 1.27 ± 0.11 |
| T249H | 1.64 ± 0.2 |
| R211M | 1.42 ± 0.11 |

| Variant | STK11 functional score |
| --- | --- |
| V368F | 0.859 ± 0.25 |
| A347F | 1.37 ± 0.25 |
| P275T | 0.875 ± 0.18 |
| P275A | 0.693 ± 0.35 |
| A295H | 1.4 ± 0.17 |
| L140V | 0.909 ± 0.079 |
| I260F | 0.763 ± 0.1 |
| A206V | 0.497 ± 0.082 |
| G251R | 0.411 ± 0.19 |
| G251I | 0.422 ± 0.25 |
| S283D | 1.29 ± 0.4 |
| A377I | 1.55 ± 0.2 |
| L285H | -0.443 ± 0.1 |
| L285F | 0.988 ± 0.25 |
| E145Y | 1.12 ± 0.08 |
| H345W | 1.56 ± 0.11 |
| L245M | 0.526 ± 0.22 |
| L245G | -0.177 ± 0.094 |
| L245S | -0.117 ± 0.094 |
| T336E | 1.61 ± 0.15 |
| M392V | 1.51 ± 0.23 |
| R40T | 1.68 ± 0.32 |
| E33L | 1 ± 0.13 |
| A414V | 1.48 ± 0.14 |

| Variant | STK11 functional score |
| --- | --- |
| A414F | 1.38 ± 0.14 |
| A414E | 1.54 ± 0.14 |
| E65G | 0.154 ± 0.087 |
| E65Y | 1.05 ± 0.095 |
| E65W | 1.36 ± 0.12 |
| E317A | 1.53 ± 0.22 |
| A76G | 1.09 ± 0.1 |
| A76R | -0.417 ± 0.081 |
| P323I | 1.52 ± 0.14 |
| P323S | 1.3 ± 0.5 |
| P323H | 1.42 ± 0.2 |
| I79E | 0.0444 ± 0.2 |
| I79R | 0.967 ± 0.28 |
| L427H | 1.4 ± 0.25 |
| L427W | 1.53 ± 0.17 |
| M125R | 0.355 ± 0.099 |
| V110R | -0.0313 ± 0.081 |
| F148N | 0.0347 ± 0.095 |
| Q100L | 0.857 ± 0.23 |
| R409E | 1.57 ± 0.19 |
| R409V | 1.22 ± 0.21 |
| K235G | 1.28 ± 0.35 |
| K388G | 1.31 ± 0.29 |
| K388V | 1.3 ± 0.2 |

| Variant | STK11 functional score |
| --- | --- |
| F309V | 0.0641 ± 0.1 |
| I35C | 1.39 ± 0.25 |
| V66Y | 1.12 ± 0.38 |
| G408N | 1.54 ± 0.35 |
| P254G | 0.298 ± 0.11 |
| P254A | -0.109 ± 0.13 |
| Q305H | 0.99 ± 0.61 |
| Q305T | 1.5 ± 0.24 |
| Q305K | 0.543 ± 0.25 |
| H174W | 1.02 ± 0.37 |
| L286F | 0.971 ± 0.3 |
| S401L | 1.51 ± 0.28 |
| H107G | 0.812 ± 0.13 |
| H107A | 0.964 ± 0.11 |
| H107E | 0.776 ± 0.079 |
| H202V | 1.27 ± 0.26 |
| A406Y | 1.07 ± 0.58 |
| S334W | 0.649 ± 0.082 |
| S334F | 1.1 ± 0.45 |
| D176R | -0.0226 ± 0.15 |
| S142K | 1.52 ± 0.34 |
| S142A | 1.63 ± 0.14 |
| S142M | 0.933 ± 0.16 |
| A43W | 1.06 ± 0.11 |

| Variant | STK11 functional score |
| --- | --- |
| F264G | 1.01 ± 0.21 |
| F264E | 1.57 ± 0.26 |
| F264R | 0.806 ± 0.25 |
| L55H | 1.43 ± 0.47 |
| Q220V | 0.924 ± 0.23 |
| E120Q | 1.16 ± 0.49 |
| R301P | 1.07 ± 0.38 |
| I361G | 0.895 ± 0.29 |
| Y340I | 0.334 ± 0.27 |
| Y340S | 1.3 ± 0.28 |
| L263Q | 0.281 ± 0.62 |
| P179F | 0.0795 ± 0.09 |
| E293S | 1.08 ± 0.25 |
| P314G | 1.07 ± 0.47 |
| P314D | 1.5 ± 0.17 |
| I224R | 1.04 ± 0.17 |
| L50G | 0.949 ± 0.24 |
| S422K | 1.53 ± 0.12 |
| S422V | 1.05 ± 0.16 |
| L101R | 1.25 ± 0.2 |
| Y36G | 1.55 ± 0.11 |
| E130K | 1.36 ± 0.14 |
| E342I | 1.42 ± 0.26 |
| G227P | 1.1 ± 0.52 |

| Variant | STK11 functional score |
| --- | --- |
| G227V | 0.625 ± 0.1 |
| C210V | 1 ± 0.26 |
| K403F | 1.2 ± 0.23 |
| K403D | 1.53 ± 0.2 |
| K403W | 1.54 ± 0.27 |
| K403N | 1.42 ± 0.6 |
| P319W | 0.513 ± 0.25 |
| P319Y | 1.46 ± 0.21 |
| L45F | 1.1 ± 0.26 |
| D284E | 1 ± 0.29 |
| P89W | 1.08 ± 0.16 |
| E92L | 1.01 ± 0.15 |
| F255W | 0.941 ± 0.1 |
| G385M | 1.59 ± 0.24 |
| G385P | 1.26 ± 0.32 |
| A410K | 1.6 ± 0.2 |
| A410L | 1.42 ± 0.2 |
| P326H | 0.87 ± 0.51 |
| R331P | 1.54 ± 0.22 |
| N266P | 1.09 ± 0.12 |
| N266D | 1.13 ± 0.43 |
| V337F | 0.545 ± 0.31 |
| K81A | 1.66 ± 0.18 |
